According to US20180250426A1:

Biological target: CA1.CD2-P40 (CA1.CD2 PEGylated with P40) (rat) (UniProt P08921)
Test: Western blot, CA1.CD2 PEGylated with P40

Sequence of CA1.CD2-P40 (CA1.CD2 PEGylated with P40) (rat) (P08921 23-121 limits assumed): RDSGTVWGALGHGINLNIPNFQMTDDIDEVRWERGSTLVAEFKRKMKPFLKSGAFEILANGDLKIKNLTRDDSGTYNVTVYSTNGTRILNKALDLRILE

## OX34 antibody
  decrease of binding against unmodified CA1.CD2: 50%
